Target: Complement component 3 (C3) (Homo sapiens) (UniProt P01024+P01024)
Test: filter
Conditions: 3'-3' idT
[1] = all U = NapdU, T = dT, SB18T0.01, 37C
[2] = all U in listing = NapdU, SB18T0.01, 37C

Complement component 3 (C3) (Homo sapiens), sequence (P01024 23-667, chain 1 of 2): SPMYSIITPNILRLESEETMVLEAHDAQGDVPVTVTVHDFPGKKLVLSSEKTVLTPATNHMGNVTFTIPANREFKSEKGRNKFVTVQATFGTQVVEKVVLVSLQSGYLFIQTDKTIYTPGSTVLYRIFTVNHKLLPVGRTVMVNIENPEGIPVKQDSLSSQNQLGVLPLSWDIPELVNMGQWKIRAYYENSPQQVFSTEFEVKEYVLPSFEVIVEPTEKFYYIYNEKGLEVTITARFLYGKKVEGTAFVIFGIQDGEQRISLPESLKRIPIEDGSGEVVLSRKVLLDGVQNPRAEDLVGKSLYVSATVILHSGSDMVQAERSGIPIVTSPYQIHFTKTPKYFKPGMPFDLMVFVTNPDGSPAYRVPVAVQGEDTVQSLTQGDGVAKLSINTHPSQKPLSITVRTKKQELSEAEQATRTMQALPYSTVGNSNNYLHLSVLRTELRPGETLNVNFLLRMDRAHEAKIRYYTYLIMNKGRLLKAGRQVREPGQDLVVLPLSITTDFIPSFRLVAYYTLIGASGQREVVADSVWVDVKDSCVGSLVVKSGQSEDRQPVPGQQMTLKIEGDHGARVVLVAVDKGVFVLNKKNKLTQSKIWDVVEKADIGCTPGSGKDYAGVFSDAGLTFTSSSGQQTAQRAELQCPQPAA
Complement component 3 (C3) (Homo sapiens), sequence (P01024 672-1663, chain 2 of 2): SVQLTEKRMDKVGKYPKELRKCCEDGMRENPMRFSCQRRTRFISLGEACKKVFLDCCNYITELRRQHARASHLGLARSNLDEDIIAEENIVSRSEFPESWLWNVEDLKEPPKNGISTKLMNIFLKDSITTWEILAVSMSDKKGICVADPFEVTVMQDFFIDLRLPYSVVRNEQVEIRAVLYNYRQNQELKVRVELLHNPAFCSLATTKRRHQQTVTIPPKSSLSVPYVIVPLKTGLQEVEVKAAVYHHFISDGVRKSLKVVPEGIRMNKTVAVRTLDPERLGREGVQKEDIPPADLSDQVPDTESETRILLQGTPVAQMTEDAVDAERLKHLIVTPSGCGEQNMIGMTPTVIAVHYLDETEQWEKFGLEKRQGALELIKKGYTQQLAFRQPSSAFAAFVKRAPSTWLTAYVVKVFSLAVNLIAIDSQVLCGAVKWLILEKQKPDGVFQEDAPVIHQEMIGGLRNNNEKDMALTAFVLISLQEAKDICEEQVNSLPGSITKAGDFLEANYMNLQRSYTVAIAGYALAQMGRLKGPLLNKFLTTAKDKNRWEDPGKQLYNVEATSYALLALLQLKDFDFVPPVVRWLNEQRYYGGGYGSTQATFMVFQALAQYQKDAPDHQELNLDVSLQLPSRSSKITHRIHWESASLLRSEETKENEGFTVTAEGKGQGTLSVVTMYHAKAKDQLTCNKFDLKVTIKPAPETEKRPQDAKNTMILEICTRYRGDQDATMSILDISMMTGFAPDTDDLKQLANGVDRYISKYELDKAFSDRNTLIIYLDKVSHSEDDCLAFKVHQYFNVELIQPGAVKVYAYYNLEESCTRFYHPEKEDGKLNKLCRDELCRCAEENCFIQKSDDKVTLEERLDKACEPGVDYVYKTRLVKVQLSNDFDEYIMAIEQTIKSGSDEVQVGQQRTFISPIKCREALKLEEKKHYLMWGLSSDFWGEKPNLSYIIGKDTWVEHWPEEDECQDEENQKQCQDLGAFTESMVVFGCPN

Sequence: CGGUGACUCAAUAGUCCGUACGUUCCCG [8491-94_79]
- Kd (P = NapdU (all U), 2'-OMe C21, SB18T0.01, 5 mM MgCl2, 37 C): 0.273 nM

Sequence: ACTCCCCGGTGACUCAAUAGUCCGUACGUUCCCGGUCCGAACGCGGAGGA [8491-94_11]
- Kd [1]: 29.5 nM

Sequence: CCGGUGACUCAAUAGUCCGUACGUUCCGG [8491-94_49]
- Kd (all U = NapdU, C3-spacer replaces C27, SB18T0.01, 37C): 0.266 nM

Sequence: CCGGUGCUCAAUAGUCCGUACGUUCCCGG [8491-94_35]
- Kd (all U = NapdU, C3-spacer replaces A7, SB18T0.01, 37C): 5.67 nM

Sequence: CGGUGACUCAAUAGUCCGUACGUUCCCG [8491-94_66]
- Kd (all U = NapdU, 2'-OMe at NapdU8, SB18T0.01, 37C): 0.149 nM

Sequence: CGGUGACUCAAUAGUCCGUACGUUCCCG [8491-94_62]
- Kd (P = NapdU (all U), 2'-OMe P4, SB18T0.01, 5 mM MgCl2, 37 C): 0.0918 nM

Sequence: CGGUGACUCAAUAGUCCGUACGUUCCCGG [8491-94_29]
- Kd (all U = NapdU, SB18T0.01, 37C): 0.0581 nM

Sequence: CGGUGACUCAAUAGUCCGUACGUUCCCGGUCCGAACGCGGAGGA [8491-94_9]
- Kd (all U = NapdU, SB18T0.01, 37C): 0.243 nM

Sequence: ACTCCGAGCAUUGACUCAAUAGUCCGUACGUUUUUUUGGGCCGGGGGGGCAGGAGGA [8491-403_3]
- Kd (all U in listing = NapdU, printed as 1.53-10, SB18T0.01, 37C): 0.153 nM

Sequence: UGGUGACUCAAUAGUCGUACAUUCCCA [8491-94_138]
- Kd (all P = NapdU, U1 = 2'-OMe-U, 2'-OMe at 1,2,3,5,7,9,10,13,19,20,22-28, C3-spacer replaces C17, SB18T0.01, 37C): 18.2 nM

Sequence: ACTCCAUGUCGGCGUUUGGCUCAAUAGUCCGUACGUUUUACGCGUGAGGA [8491-389_3]
- Kd [2]: 0.0295 nM

Sequence: GGGUGACUCAAUAGUCGUACAUUCCCC [8491-94_136]
- Kd (all P = NapdU, 2'-OMe at 1,2,3,5,7,9,10,13,19,20,22-28, C3-spacer replaces C17, SB18T0.01, 37C): 9.1 nM

Sequence: CGGUGACUCAAUAGUCCGUACGUUCCCG [8491-94_85]
- Kd (P = NapdU (all U), 2'-OMe C27, SB18T0.01, 5 mM MgCl2, 37 C): 0.0524 nM

Sequence: ACTCCCUAACACGGCCGAGUUGACUCCCAUAGUCCGUACGUUUGCGAGGA [8491-387_3]
- Kd [2]: 0.519 nM

Sequence: CGGUGACUCAAUAGUCCGUACGUUCCCG [8491-94_96]
- Kd (all U = NapdU, 2'-OMe at 1,2,3,5,7,9,10,13,19,20,23-28, SB18T0.01, 37C): 0.0364 nM

Sequence: CCGGUGACUCAUAGUCCGUACGUUCCCGG [8491-94_38]
- Kd (all U = NapdU, C3-spacer replaces A11, SB18T0.01, 37C): 0.148 nM

Sequence: CGGUGACUCAAUAGUCCGUACGUUCCCG [8491-94_76]
- Kd (all U = NapdU, 2'-OMe at G18, SB18T0.01, 37C): 0.93 nM

Sequence: CCCCGGUGACUCAAUAGUCCGUACGUUCCCGGUCCGAACGCGGAGGA [8491-94_8]
- Kd (all U = NapdU, SB18T0.01, 37C): 0.0369 nM

Sequence: ACTCCCCGGUGACUCAAUAGUCCGUACGUUCCCGGTCCGAACGCGGAGGA [8491-94_18]
- Kd [1]: 0.0421 nM

Sequence: CGGUGACUCAAUAGUCGUACGUUCCCG [8491-94_58]
- Kd (all U = NapdU, C3-spacer replaces C17, SB18T0.01, 37C): 0.787 nM

Sequence: CGGUGACUCAAUAGUCCGUACGUUCCCG [8491-94_63]
- Kd (P = NapdU (all U), 2'-OMe G5, SB18T0.01, 5 mM MgCl2, 37 C): 0.0268 nM

Sequence: ACTCCGAGCAUUGACUCAAUAGUCCGUACGUUUUACGCGUGAGGA [8491-407_3]
- Kd [2]: 0.208 nM

Sequence: UGGUGACUCAAUAGUCCGUACAUUCCCA [8491-94_139]
- Kd (all P = NapdU, U1 = 2'-OMe-U, 2'-OMe at 1,2,3,5,7,9,10,13,19,20,22-28, SB18T0.01, 37C): 26.7 nM

Sequence: CCGUGACUCAAUAGUCCGUACGUUCCCGG [8491-94_33]
- Kd (all U = NapdU, C3-spacer replaces G4, SB18T0.01, 37C): 0.245 nM

Sequence: CGGUGACUUAGUCCGUACGUUCCCG [8491-94_57]
- Kd (all U = NapdU, hexaethylene glycol (Heg) replaces C9-A10-A11, SB18T0.01, 37C): 0.245 nM

Sequence: ACTCCCCGGUGACUCAAUAGUCCGUACGUUCCCGGUCCGAACGCGGA [8491-94_4]
- Kd (all U = NapdU, SB18T0.01, 37C): 0.0291 nM

Sequence: ACTCCCCGGUGACUCAAUAGUCCGUACGUUUGGCCGGGCAGGGGAGGA [8491-395_3]
- Kd [2]: 3.52 nM

Sequence: CCCCGGUGACUCAAUAGUCCGUACGUUCCCGG [8491-94_25]
- Kd (all U = NapdU, SB18T0.01, 37C): 0.0928 nM

Sequence: ACTCCGUCUGGCUAACUUAGUCCGUACGUUCGUGAGCGUGAUUAUGAGGA [8491-397_3]
- Kd [2]: 3.11 nM

Sequence: ACTCCACGGUGACUCCAUAGUCCGUACGUUCCCGCGGACGCACCGAGGA [8491-388_3]
- Kd [2]: 0.71 nM

Sequence: ACTCCCCGGUGACUCAAUAGUCCGUACGUUCCCGG [8491-94_19]
- Kd (all U = NapdU, SB18T0.01, 37C): 0.0559 nM

Sequence: CCGGUGACUCAAUAGUCCUACGUUCCCGG [8491-94_44]
- Kd (all U = NapdU, C3-spacer replaces G19, SB18T0.01, 37C): 1.28 nM

Sequence: ACTCCGAGCAUUGACUCAAUAGUCCGUACGUUUGGCCCGUUCACAAGGAGGA [8491-393_3]
- Kd [2]: 0.25 nM

Sequence: CCGGUGACUCAAUAGUCCGUACGUUCCC [8491-94_28]
- Kd (all U = NapdU, printed as 2.65-10, SB18T0.01, 37C): 0.265 nM

Sequence: CCGGUGACUCAAUAUCCGUACGUUCCCGG [8491-94_41]
- Kd (all U = NapdU, C3-spacer replaces G15, SB18T0.01, 37C): 0.598 nM

Sequence: ACTCCCCGGUGACUCAAUAGUCCGUACGTUCCCGGUCCGAACGCGGAGGA [8491-94_16]
- Kd [1]: 69.4 nM

Sequence: CGGUGAUCAAUAGUCGUACGUUCCG [8491-94_102]
- Kd (all U = NapdU, 2'-OMe at 1,2,3,5,10,13,26,27,28, C3-spacer replaces C7, C17, C25, SB18T0.01, 37C): 0.0603 nM

Sequence: CCGGUGACUCAAUAGUCCGUCGUUCCCGG [8491-94_45]
- Kd (all U = NapdU, C3-spacer replaces A21, SB18T0.01, 37C): 228 nM

Sequence: CGGUGACUCAAUAGUCCGUACGUUCCCG [8491-94_77]
- Kd (P = NapdU (all U), 2'-OMe P19, SB18T0.01, 5 mM MgCl2, 37 C): 0.0262 nM

Sequence: ACTCCCCGGUGACUCAAUAGUCCGUACGUU [8491-94_21]
- Kd (all U = NapdU, SB18T0.01, 37C): 0.249 nM

Sequence: CGGUGACUCAAUAGUCCGUACGUUCCCG [8491-94_73]
- Kd (all U = NapdU, 2'-OMe at NapdU15, SB18T0.01, 37C): 1.32 nM

Source: patent publication US20170166895
